Laboratory results reported in the nanobody polyreactivity screen of Harvey et al. (2022).

Test: yeast display, Sf9 membrane polyspecificity reagent, FACS + sequencing; frameworks hold sequencing errors
Summary of the method: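 Nanobodies from a synthetic yeast display library (Saccharomyces cerevisiae BJ5465), induced 36–48 hours with galactose, were stained 1 hour at 4 °C with 10% biotinylated, detergent-solubilized Sf9 membrane reagent, enriched on streptavidin microbeads, then FACS-sorted. Anti-HA (expression) and streptavidin (reagent binding) fluorescence set low and high (top ~1%) gates. Polyreactivity labels come from the gate of origin. Genes were colony-PCR amplified, MiSeq 2 × 250 sequenced and filtered by CDR length.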

For “QVQLVESGGGLVQAGDSLRLSCAASGLTFTYYAMGWYRQAPGKERELVAAITGSGDRTYYADSVKGRFTISRDNAKNTVYLQMNSLKPEDTAVYYCARDRPGRATGFDYWGPGTQVTVSS”, the “polyreactivity (PSR sort gate)” value was “high polyreactivity”.
In the case of “QVQLVESGGGLVQAGGSLRLSCAASGITFNLYAMGWYRQAPGKEREFVAVITASGSSTYYADSVKGRFTISRDNAKNTVYLQMNSLKPEDTAVYYCAARWHIYYFSYVTSYAYGYWGQGTQVTVSS”, the “polyreactivity (PSR sort gate)” value is reported as “high polyreactivity”.
In the case of “QVQLVESGGGLVQAGGSLRLSCAASGRIYYNAMGWYRQAPGKEGELVAAISGSGTRTYYADSVKGRFTISRDNAKTTVYLQMNSQKPEDTAVYYCARYYSHYSTYDYVRYGYWGQGTQVTVSS”, the “polyreactivity (PSR sort gate)” value is reported as “high polyreactivity”.
In the case of “QVQLVESGGGLVQAGGSLRLSCAASGIIFGQNAMGWSRQSPGKESEVVAAITISGGSTYYADSVKGRFTISRDNAKNTVYLQMNSLKPEDTAVYYCAARRVTWKVIARGYRYGYWGQGTQVTVSS”, the “polyreactivity (PSR sort gate)” value is reported as “low polyreactivity”.
With “QVQLVESVGGLVQAGGSLRLSCAASGFIFYGYAMGWYRQAPGKERELVAAISRSGTSTYYADSVKGRFTISRDYAKNTVYLQMNSVKPDDTAVYYCDADYVGWKWGSRGAIYKHYYWGQGTQVTVSS” the “polyreactivity (PSR sort gate)” value was “high polyreactivity”.
For “QVQLVESVGGLVQAGGSLRLSCAASGRTFSFYAMGRYRQRQGKESELVAGIDGNDGSTYYADSVKGRFTISRDNAKNTVYIQMNSLKPEDTAVYYCNAEKWTGQYCCYYRMYYYWGQGTQVTVSS”, the “polyreactivity (PSR sort gate)” value was “low polyreactivity”.
In the case of “EEELVDSGGGLVQAGGSLRLSCSAYGSTFRDYAMGWYRQAPGKERELVAAITSGGTTDYADSVKGRFPISRDNAKNTVYLQMNSLKPEDTAVYYCNKDGVVAGYQYDYWGQGTQVTVSS”, the “polyreactivity (PSR sort gate)” value is reported as “low polyreactivity”.
For “QVQLVESGGGLVQAGGSLRLSCAASGRIFRYYTRGWYRQAPGKERELVAAISSSGGRTYYADSVKGRFTISRDYANNTVYLQMNSLKPEDTAVYYCNTDGPTWYPTYDYWGQGTQVTVSS”, the “polyreactivity (PSR sort gate)” value was “high polyreactivity”.
In the case of “QVQLVESGGGLVQAGGSLRLSCAASGSIFPYNAMGWYRQAPGKERQLVARISWSGGSTYYADSVKGRFTISRDNAKNTVYLQMNSLKPEDTAVYYCAATIIFDAQYRFYYWGQGTQVTVSS”, the “polyreactivity (PSR sort gate)” value is reported as “low polyreactivity”.
In the case of “QVQLVESGGGLVQAGGSLRLSCAASGRIFRYYAMGWYSQAPGQDRELVAAISWSGGSTYYADSVKGRFTISRDKAKNTVYLQMHSLKPEDTAVYYCNKVPLGLEGDYWGQGTQVTVSS”, the “polyreactivity (PSR sort gate)” value is reported as “high polyreactivity”.
In the case of “QVQLVESGGGLVQAGGSLRLSCAASGYTFYAYAMGWYRQAPGKERELVAAISGSGGNTRYADSVKGRFTISRDNAKNTVYLQMNSLKPEDTAVYYCAAVGWAYNSRYDYWGQGTQVTVSS”, the “polyreactivity (PSR sort gate)” value is reported as “high polyreactivity”.
For “QVQLVESGGALVQAGGTRRLSCAASASTYPYAMGWYRQDPAKERELVAAITWSGGNTYFADSVKGRFTISRDNAKNSVYLQMNSMKPEDTAFYYCAALIGYRVFRYNYWGQGTQLTVSS”, the “polyreactivity (PSR sort gate)” value was “high polyreactivity”.
In the case of “QDQLVESGGGLVQAGGSLRLSCAASGNIYPYAMGWYRQAPGKEREFVAAIRYSGGITYYADSVKGRFTISRDNAKNTVYLQMNSLKPEDTAVYYCAAYGWGNRWYSRFDYWGQGTQVTVSS”, the “polyreactivity (PSR sort gate)” value is reported as “high polyreactivity”.
In the case of “QVQLVESGGGLVQAGGSLRLSCAASGRIFGYYAMGWYRQAPGKERELVAAISYSGGRTYYADSVKGRFTISRDNAKNTVYLQMNSLKPEDTAVYYCNARSRSYKWYTRTGYGYDYWGQGTQVTVSS”, the “polyreactivity (PSR sort gate)” value is reported as “high polyreactivity”.
For “QVQLVESGGGLVQAGGSLRLSCAASGSIYYYTMGWYRQAPGKERELVAAISRSGTRTYYADSVKGRFTISRDNAMYTVYLQMNSLKPEDTAGYYCAARILPPGDNVDDDYWGQGTQVTVSS”, the “polyreactivity (PSR sort gate)” value was “high polyreactivity”.
For “QGQHVETGGGLVQAGGRLRLSCAASGSTLRDYVMGWSRQAPGKERELVAAITSRVDDTYYADSVKGRFTISRDNAKNTVYLQMNSLKPEDTAVYYCAADSSVTLRIGGYYWFYAFDYWGQGTQVTVSS”, the “polyreactivity (PSR sort gate)” value was “low polyreactivity”.
In the case of “QVQLVESGGGLVQAGGSLRLSCAASGRIFSQYAMGWYRQAPGKERELVAAISRRTGSTYYADSVKGRFTISRDNAKNTVYLQMNSLKPEDTAVYYCNKARLGWSYRQDDYWGQGTQVTVSS”, the “polyreactivity (PSR sort gate)” value is reported as “high polyreactivity”.
With “QDQLVESGGGLVQAGGSLRLSCAASGITFWYYAMGWYRQAPGKERELVAAITRSGRTNYADSVKGRFTISRDYAKNTVYLQMNILKPEDTAVYYCAVDLYSFSPRYYYWGQGTQVTVSS” the “polyreactivity (PSR sort gate)” value was “low polyreactivity”.
For “QVQLVESGGGLVQAGASLRLSCAASGSISKSYAMGWYRQAPGKERELVAAISSRGGSTYADSVKGRFTISRDNAKNTVYLQMNSLKPEDTAVYYCAATNYGTFWGGQSERYDYWGQGTQVTVSS”, the “polyreactivity (PSR sort gate)” value was “low polyreactivity”.
For “QVQLVESGGGLVQAGGSHRLSCAASGFIFYVYAMGWYRQAPGKERELVATINGRRSRTYYADSVKGRFTISRDNAKNTVYLQMNSLKPEDTAVYYCAAVAWVLRYGRGDYWGQGTQVTVSL”, the “polyreactivity (PSR sort gate)” value was “high polyreactivity”.
In the case of “QVQLVESGGGLVQAGGSLRLSCAASGRTFSTNAMGWYRQAPGKEREFVAAITGSGGSTYYADSVKGRFTISRDNAKNTVYLQMNSLKPEDTAVYYCAKRSAWHTYRYGYWGQGTQVTVSS”, the “polyreactivity (PSR sort gate)” value is reported as “high polyreactivity”.
In the case of “QVQLVESGGGLVQAGGSLRLSCAASGRTFYWYAMGWYRQAPGKERELVAGISSGGGTYYADSVKGRFTISRDNAKNTVYLQMNSLKPEDTAVYYCAAAWENIWVWQEYIEYDYWGQGTQVTVSS”, the “polyreactivity (PSR sort gate)” value is reported as “low polyreactivity”.
With “QVQLVESGRGLVQAGGRLRLSCAASGFTFNRYTMGGYRQAPGKEREFVASITRSGGSTYYADSVKGRFTISRDNAKNTVYLQMNSLTPEDTAVYYCAPVYQYSSRYDHWGQGTQVTVSS” the “polyreactivity (PSR sort gate)” value was “high polyreactivity”.
For “QVHLVESGGGLVQAGGSLRLSCAASGLIFVFYAMGWYRQAPGKERELVAAISRSGTSTYADSVKGRFTISRDNAKNTVYLQMNSLKPEDTAVYYCNAYRYYSPDGYWGQGTHVTVSS”, the “polyreactivity (PSR sort gate)” value was “low polyreactivity”.
With “QVQLVESGGGLVQAGGSLRLSCAASGRTFYPNVMGWYRQAPGKERELVAAITSGGSTYYADSVKGRFTISRDNAKNTVALEMNSQKPEDTAVYYCAVAYAGGGSRKYDYWGQGTQVTVSS” the “polyreactivity (PSR sort gate)” value was “low polyreactivity”.
For “QVQLVESGGGLVQAGGSLRLSCAASGRTSVRYAMGWYRQAPGKERELVAAISWSGGSTYYADSVKGRFTISRDNAKNTDYLQMNSLKAEDTAVYYCNAQHARGYYYWGQGTQVTVSS”, the “polyreactivity (PSR sort gate)” value was “low polyreactivity”.
In the case of “QVQLVESGGGLVQAGGSLRLSCAASGIIFDDYAMGWYRQAPGKERELVAAISVSGGSTYNADSVKGRFTISRDNAKNTVYLQMNSLKPEDTAVYYCAARLIVGRFLRYDYWGQGTQVTVSS”, the “polyreactivity (PSR sort gate)” value is reported as “high polyreactivity”.
In the case of “QVQLVESGGGLVQAGGSLRLSCAASGFTLWLNAMGWYRRAPGKERELVAAITTSDDGTYYADSVKGRFTISRDNAKNTVYLQMNSLKPEDTAVYYCAADYYSVLYDYWGQGTQVTVSS”, the “polyreactivity (PSR sort gate)” value is reported as “low polyreactivity”.
In the case of “QVQLVESGGGLVQAGGSLRLSCAASGFIFVRYAMGWYRQAPGKERELVASITRSGGSTYYADSVKGRFTISRDNAKNTVYLQMNSLKPEDTAVYYCAASYYRSRGSTYGYWGQGTQVTVSS”, the “polyreactivity (PSR sort gate)” value is reported as “high polyreactivity”.
With “QVQLVESGGVLLQAGASLRLSCAASGSIIRSYAMGWYRQAPGKERELVASISRRGGSTYYADSVKGRFTISRDNPKNSVFLQMNSLNPVDTADYYCGAVTTSKFNFWGQGTQVTVSS” the “polyreactivity (PSR sort gate)” value was “low polyreactivity”.
With “QVQLVESGGGLVQAGGSLRLSCASSGRIFPWNTMGWYRQAPGKERELVAGINNGDRTYYADSVKGRFTISRDNAKNRVYLQMNSLKPDETAVYYCARDDNPIYSGVTYDSWGQGTQVSVSS” the “polyreactivity (PSR sort gate)” value was “low polyreactivity”.
In the case of “QVQLVESGGGLVQAGGSLRLSCAASGSSFISNTMGWYRQAPGKERELVAAISSGGDTSYADSVKGRFTISRDNAKNTVYLQMNILKPEDTAVYYCNVDTSATSYSSEYDYWGQGTQVTVSS”, the “polyreactivity (PSR sort gate)” value is reported as “low polyreactivity”.
In the case of “QVQLVESGGGLVQAGGSLRLSCAASGITFLNYAMGWYRQAPGKERELVAAIDTRGGRTNYADSVKGRFTISRDNAKNTVYLQMNSLKPEDTAVYYCNALGYYVHKMDYWGQGTQVTVSS”, the “polyreactivity (PSR sort gate)” value is reported as “low polyreactivity”.
In the case of “QVQLVESGGGLVQAGGSLRLSCAASGSIFGTNAMGWYRQAPGKERELVAAISTSADITYYADSVKGRFTISRDNAKNTVYLQMNSLKPEDTAVYYCNKRKWPTFTYAMNYWGQGTQVTVSS”, the “polyreactivity (PSR sort gate)” value is reported as “low polyreactivity”.
With “QVQLVESGGGLVQAGGSLRLSSAASGSTFNSYAMGWYRQAPGKERELVAGITSRGTSTYYADSVKGRFTISRDNAKNTVYLQMNSLKPEDTAVYYCNKYHYWASPMNYWGHGTQVTVSS” the “polyreactivity (PSR sort gate)” value was “high polyreactivity”.
For “QVQLVESGGGLVQAGGSLRLSCAASGSIFVPNTMGWYRQAPGKERELVAAIRFSSGRTYYADSVKGRFTISRDNAKNTVYLQMNSLKPEVTAVYYCAADPRYSSGITYTRFYYWGQGTQVTVSS”, the “polyreactivity (PSR sort gate)” value was “high polyreactivity”.
In the case of “QVQLVESGGGLGQAGGSLRLSCAASGSTFQIYAMGWYREAPGKEWEFVAAITSSSSTNYADSVKGRFTISRDNAKNTVYLQMNSLKPEDTAVYYCAADVSWRSNWYDYWGQGTQVTVSS”, the “polyreactivity (PSR sort gate)” value is reported as “low polyreactivity”.
In the case of “QVQLVESGGGLVQAGGSLRLSCAASGRTFYFYAMGWYRQAPGKERELVAGISWRGVSTYYADSVKGRFTISRDNAKNTVYLQMNSLKPEDTAVYYCAADIGRHTDNYDPRYDYWGQGTQVTVSS”, the “polyreactivity (PSR sort gate)” value is reported as “low polyreactivity”.
With “QGQLVESGGGLVQAGGSLRLSCAASGRTFRYNAMGWYRQAPGKERELVAAITWGGGSTDYADSVKGRFTISRDNAKNTVYLQMHSLKPEDTAVYYCNADYIGNYHSIYQYDYWGQGTQVTVSS” the “polyreactivity (PSR sort gate)” value was “low polyreactivity”.
With “QVQLVESGGGIVQAGGSLRLSCAASGSIFYVYAMGWYRQAPGKERELVAAIYSGASTYYADSVKGRFTISRDNAKNTVYLQMNSLKPEDTAVYYCAKRWRRRFVDVWSLYDYWGQGTQVTVSS” the “polyreactivity (PSR sort gate)” value was “low polyreactivity”.
In the case of “QVQLVESGGGLVQAGGSLRLSCAASGSIFSYYAMGWYRQEPGKERELVAAITWSGTRTYYADSVKGRFTISRDNAKNTVYLQMISLKPEDTAVYYCATEYDYWDDSYDSWGLGTQVTVSS”, the “polyreactivity (PSR sort gate)” value is reported as “low polyreactivity”.
For “QVQHEDSGGGLVQAGGSHRVSCAASGSTFAYNAMGGSRKAPGKERELVATISTDGSTYADSVKGRFTISRDNAQNTVYLQMNSLKPEDTAVYYCNADGHPSDPGYDYWGQGTQVTVSS”, the “polyreactivity (PSR sort gate)” value was “low polyreactivity”.
With “QVQLVESGGGLVQAGGSLRISCAASGITFNKNDMGWYRQAPGKERELVAAISGRGGSTYYADSVKGRVTISRDNAKNTVYLQMNSLKPEDTAVYYCAADNFKGDSYGTGNYDYWGQGTQVTVSS” the “polyreactivity (PSR sort gate)” value was “high polyreactivity”.
